Experiment [1] relates to Hypoxia-Inducible Factor (HIF). As to conditions: target cell empty; cited from earlier work.
Another experiment deals with PHD1-3. Conditions: target PHD1-3; cited from earlier work.
The test system of experiment [2] is CD11c^IntMHCII^HighXCR1^+ cDC1s / OT-II cells. Kind of experiment: In vitro Ag-specific Treg induction: pLN cDC1s loaded with Ova-thy cells and naïve OT-II cells. It counts as cell-based, mouse. Conditions: untreated cells 25.5%.
A further experiment concerns the target PHD2 (Homo sapiens, UniProt Q9GZT9). As to conditions: target PHD2; cited from earlier work.
The target of experiment [3] is T1, EPO/EPOR interaction (EPOR-CD131-Fc and EPO) (Homo sapiens, UniProt P19235+P32927).
T1 construct: Chimeric Fc fusion proteins of the extracellular domains of human EPOR and human CD131; purchased Sino Biological CT010-H02H
T1 sequence (P19235 25-250 limits assumed): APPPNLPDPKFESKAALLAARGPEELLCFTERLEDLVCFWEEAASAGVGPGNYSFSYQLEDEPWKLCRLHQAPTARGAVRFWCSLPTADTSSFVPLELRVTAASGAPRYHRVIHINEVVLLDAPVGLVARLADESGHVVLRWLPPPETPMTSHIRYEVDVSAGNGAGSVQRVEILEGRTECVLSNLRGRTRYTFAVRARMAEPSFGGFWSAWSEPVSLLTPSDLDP
T1 sequence (P32927 17-443 limits assumed): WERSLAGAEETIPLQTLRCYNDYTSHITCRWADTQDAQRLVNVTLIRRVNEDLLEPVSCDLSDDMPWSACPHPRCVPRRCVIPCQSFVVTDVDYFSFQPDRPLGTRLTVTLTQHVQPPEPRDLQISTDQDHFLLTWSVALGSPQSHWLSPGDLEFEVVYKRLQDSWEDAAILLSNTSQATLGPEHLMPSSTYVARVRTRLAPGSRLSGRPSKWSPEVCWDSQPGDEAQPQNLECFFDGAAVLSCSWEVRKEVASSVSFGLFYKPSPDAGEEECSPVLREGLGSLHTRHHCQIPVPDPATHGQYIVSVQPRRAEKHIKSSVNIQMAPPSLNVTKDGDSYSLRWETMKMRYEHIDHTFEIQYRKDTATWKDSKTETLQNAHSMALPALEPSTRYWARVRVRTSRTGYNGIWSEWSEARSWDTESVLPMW
Put plainly: Octet blocking of the EPO/EPOR interaction by hybridoma supernatants. It counts as binding. Conditions: EPO 10 nM.

The target in another experiment is T2, 293T/EPOR/CD131 cells (Homo sapiens, UniProt P19235).
T2 construct: expressed in transfected cells; host or cells: 293T cells, lentiviral transduction
T2 sequence (P19235 25-508): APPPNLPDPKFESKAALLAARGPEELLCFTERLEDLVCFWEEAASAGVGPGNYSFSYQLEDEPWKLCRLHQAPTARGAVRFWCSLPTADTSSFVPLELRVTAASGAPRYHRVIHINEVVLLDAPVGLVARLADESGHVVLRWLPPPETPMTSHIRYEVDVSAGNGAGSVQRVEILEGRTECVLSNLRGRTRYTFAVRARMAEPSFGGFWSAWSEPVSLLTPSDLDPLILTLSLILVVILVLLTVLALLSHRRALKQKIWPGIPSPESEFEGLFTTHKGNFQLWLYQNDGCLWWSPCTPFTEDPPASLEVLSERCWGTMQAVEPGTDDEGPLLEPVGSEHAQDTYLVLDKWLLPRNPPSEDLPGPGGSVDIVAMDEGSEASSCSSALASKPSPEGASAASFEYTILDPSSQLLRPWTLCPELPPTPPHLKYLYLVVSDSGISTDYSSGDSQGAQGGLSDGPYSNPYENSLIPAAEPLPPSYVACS
Put plainly: Staining of 293T/EPOR/CD131 cells with purified antibodies. Type of experiment: binding. As to the method:
(§1) The purified antibodies were used to stain the human leukemia UT-7 cells, 293T/EPOR, 293T/CD131, and 293T/EPOR/CD131 cells to confirm antigen binding. The UT-7 cells were maintained in Roswell Park Memorial Institute (RPMI) with 10% Fetal Bovine Serum (FBS) and 5 ng/ml of recombinant human GM-CSF (Peprotech®, Cat #300-03). The 293T cells expressing hEPOR, hCD131, or both were maintained in Dulbecco's Modified Eagle Medium (DMEM) with 10% FBS. 1×10^6 cells/ml were incubated with purified hybridoma clones M2 and M41 at a 3-fold dilution series starting from 20 μg/ml for 30 minutes at 4° C. After washing, the cells were incubated with PE labeled secondary antibody and subjected to flowcytometric analysis. […] The binding profiles of the 293T/EPOR/CD131 cells are similar except the peak MFIs around 1500, half of that of the 293T/EPOR cells (FIG. 29B).

Another experiment deals with T3, EPOR (UT-7 cells) (Homo sapiens, UniProt P19235).
T3 construct: endogenous in cells; host or cells: UT-7 human leukemia cells
T3 sequence (P19235 25-508): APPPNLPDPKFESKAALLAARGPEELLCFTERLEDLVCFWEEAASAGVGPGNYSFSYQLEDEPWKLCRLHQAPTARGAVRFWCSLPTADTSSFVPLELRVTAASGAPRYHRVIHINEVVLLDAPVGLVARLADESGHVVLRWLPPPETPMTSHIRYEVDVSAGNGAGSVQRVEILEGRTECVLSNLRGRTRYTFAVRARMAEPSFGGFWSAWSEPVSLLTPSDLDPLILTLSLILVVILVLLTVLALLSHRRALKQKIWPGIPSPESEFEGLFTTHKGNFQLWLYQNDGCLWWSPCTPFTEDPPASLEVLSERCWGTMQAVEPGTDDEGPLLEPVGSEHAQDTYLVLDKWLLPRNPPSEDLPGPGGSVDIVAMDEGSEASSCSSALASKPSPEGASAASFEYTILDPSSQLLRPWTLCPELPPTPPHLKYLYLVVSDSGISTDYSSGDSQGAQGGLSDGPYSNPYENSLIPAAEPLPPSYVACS
Put plainly: Flow-based phosphorylated Stat5 assay, blocking by anti-EPOR antibodies. It counts as cell-based. As to conditions: 20 μg/ml antibody; 0.1 μg/ml recombinant human EPO. The protocol:
EPOR activation leads to phosphorylation of Stat5. A flow-based assay on phosphorylated Stat5 was set up to test the blocking activities of anti-EPOR antibodies. The UT-7 cells were cultured without GM-CSF for overnight before the EPO stimulation. 3×10^6 cells/ml were incubated with 20 μg/ml of anti-EPOR for 15 minutes before stimulation with 0.1 μg/ml of recombinant human EPO (Peprotech®, Cat #100-64) for 10 minutes at 37° C. The cells were fixed immediately with fixation buffer (Cytofix™ buffer; BD Biosciences, Cat #554655) and permeabilized with methanol. After washing, cells were stained with PE labeled anti-Stat5 (BD Biosciences, Cat #612567) and subjected to flow cytometry analysis.

A further experiment deals with T4, 293T/CD131 cells (Homo sapiens, UniProt P32927).
T4 construct: expressed in transfected cells; host or cells: 293T cells, lentiviral transduction
T4 sequence (P32927 17-897): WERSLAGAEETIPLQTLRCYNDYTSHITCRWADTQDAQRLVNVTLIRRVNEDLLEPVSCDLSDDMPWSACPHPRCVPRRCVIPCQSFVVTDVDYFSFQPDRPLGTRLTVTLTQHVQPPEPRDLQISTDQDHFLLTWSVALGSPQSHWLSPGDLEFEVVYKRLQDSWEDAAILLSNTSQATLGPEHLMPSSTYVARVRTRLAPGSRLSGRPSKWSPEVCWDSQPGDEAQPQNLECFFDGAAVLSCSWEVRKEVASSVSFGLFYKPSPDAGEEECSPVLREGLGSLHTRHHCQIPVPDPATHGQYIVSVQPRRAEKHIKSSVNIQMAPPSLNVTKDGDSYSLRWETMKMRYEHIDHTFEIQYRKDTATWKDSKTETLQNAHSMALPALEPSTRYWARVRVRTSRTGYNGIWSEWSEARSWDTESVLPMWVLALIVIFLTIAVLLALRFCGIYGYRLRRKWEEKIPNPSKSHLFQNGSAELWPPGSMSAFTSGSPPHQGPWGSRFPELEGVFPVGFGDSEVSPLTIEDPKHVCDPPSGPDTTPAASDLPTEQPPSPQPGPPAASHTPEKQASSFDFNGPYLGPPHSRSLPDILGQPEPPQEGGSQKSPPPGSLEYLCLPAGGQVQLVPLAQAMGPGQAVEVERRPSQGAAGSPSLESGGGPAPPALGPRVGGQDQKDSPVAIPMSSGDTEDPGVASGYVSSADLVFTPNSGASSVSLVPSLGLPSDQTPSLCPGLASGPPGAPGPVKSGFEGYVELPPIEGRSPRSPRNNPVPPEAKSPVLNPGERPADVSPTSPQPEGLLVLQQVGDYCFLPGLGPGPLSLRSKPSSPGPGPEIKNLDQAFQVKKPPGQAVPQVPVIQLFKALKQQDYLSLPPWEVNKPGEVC
Kind of experiment: Staining of 293T/CD131 cells with purified antibodies. It counts as binding. As to the method: as §1

The target of the next experiment is T5, 293T/EPOR cells (Homo sapiens, UniProt P19235).
T5 construct: expressed in transfected cells; host or cells: 293T cells expressing hEPOR
T5 sequence (P19235 25-508): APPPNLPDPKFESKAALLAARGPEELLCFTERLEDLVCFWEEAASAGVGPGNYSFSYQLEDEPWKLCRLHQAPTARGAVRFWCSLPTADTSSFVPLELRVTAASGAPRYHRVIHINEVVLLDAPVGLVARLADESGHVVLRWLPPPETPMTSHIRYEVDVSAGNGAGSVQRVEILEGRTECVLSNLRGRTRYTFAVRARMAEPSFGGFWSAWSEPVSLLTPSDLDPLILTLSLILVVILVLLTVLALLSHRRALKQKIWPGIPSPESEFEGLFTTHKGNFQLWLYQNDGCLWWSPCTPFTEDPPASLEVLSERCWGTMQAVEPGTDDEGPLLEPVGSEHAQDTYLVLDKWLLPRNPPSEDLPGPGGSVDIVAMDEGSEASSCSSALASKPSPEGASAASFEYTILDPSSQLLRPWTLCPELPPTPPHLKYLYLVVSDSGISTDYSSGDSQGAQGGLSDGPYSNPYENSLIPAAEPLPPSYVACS
Put plainly: Staining of 293T/EPOR cells with purified antibodies (flow cytometry). Type of experiment: binding. As to the method: as §1
(In general: A flow cytometer gives signals particle by particle.)

Sequence of PHD2 (Q9GZT9 whole entry): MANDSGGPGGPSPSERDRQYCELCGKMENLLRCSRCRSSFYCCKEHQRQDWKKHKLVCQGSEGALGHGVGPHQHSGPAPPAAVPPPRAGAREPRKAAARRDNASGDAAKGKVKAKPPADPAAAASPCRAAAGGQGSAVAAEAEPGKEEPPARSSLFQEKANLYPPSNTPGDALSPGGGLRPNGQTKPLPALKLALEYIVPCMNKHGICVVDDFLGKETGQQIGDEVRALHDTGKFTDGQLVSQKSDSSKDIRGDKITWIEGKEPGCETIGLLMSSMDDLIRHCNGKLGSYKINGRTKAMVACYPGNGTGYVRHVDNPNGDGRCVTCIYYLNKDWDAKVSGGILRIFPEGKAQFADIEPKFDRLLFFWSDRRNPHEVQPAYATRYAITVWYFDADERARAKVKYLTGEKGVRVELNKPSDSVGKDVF

Turning to `CN1CCN(C(=O)COc2ccc(C34CC5CC(CC(C5)C3)C4)cc2)CC1` [IDF-11774], the IC50 in [1] was 3650 nM.

As for `COc1ccc(C(NC(=O)c2cnc(-c3cccnn3)nc2O)c2ccc(OC)cc2)cc1` [MK-8617], the IC50 with PHD1-3 was 1 to 14 nM.

“CEPO: chemically modified EPO analog in which the Lys residues are carbamylated [reference compound]” showed a FoxP3 expressing cells in experiment [2] of 69.3%.

Take `O=C(O)CNC(=O)c1c(O)cc(CCc2ccccc2)n2ncnc12` [Enarodustat]: the IC50 at PHD2 was 220 to 5700 nM.

B1: EPORab - M41: hybridoma antibody clone, VH/VK in Table 10 (antibody, V domains shown)
VH: QVQLVESGGGLVQPGRSLRLSCAASGFTFDDYAIHWVRQAPGKGLEWVSGISYNSENIGYADSVKGRFTISRDNAKNSLYLQMNSLRSEDTALYYCAKDMFLTWFSSFDYWGQGTLVTVSS
VL: ETKLTQSPGTLSLSPGERTTLSCRASQSISNNYLAWYQQKPGQAPRLLIYRASTRATGIPDRFSGSGSGTDFTLTIRRLEPEDFAVYYCQRYGRSPLTFGGGTKVEIK
Regarding B1, in [3], the “blocking of the EPO/EPOR interaction” value was “partial blocking”. For the same molecule, the “peak MFI” value with 293T/EPOR/CD131 cells is reported as “around 1500”. In the experiment with EPOR (UT-7 cells), the “blocking of Stat5 phosphorylation” value was “partial blocking”. The “staining of 293T/CD131 cells” value with 293T/CD131 cells is given as “did not stain”. In addition, the “binding to 293T/EPOR cells” value in the experiment with 293T/EPOR cells (0.74 μg/ml purified antibody) is reported as “lost most of the binding”; with 293T/EPOR cells (20 μg/ml purified antibody), “robust binding activities”.

In general, IC50 refers to the midpoint of a concentration-inhibition curve.
